Assay [1] has as its target Flavin reductase (FlaR), endogenous in S. pneumoniae WU2 (Streptococcus pneumoniae (endogenous in strain WU2)). Nature of the assay: SDS-PAGE and immunoblot of cell fractions; cytoplasmic and cell-wall fractions of WU2 WT, immunoblotted with rabbit anti-rFlaR antiserum; bands at ~17 kDa and 34 kDa in the cytoplasm, 34 kDa band also in the cell-wall fraction.
Assay [2] deals with Recombinant flavin reductase (rFlaR), HAT-tagged (Streptococcus pneumoniae (strain WU2)). As to the kind of experiment: SDS-PAGE with or without β-mercaptoethanol + MALDI-TOF of the bands; HAT-tagged rFlaR purified on Ni-NTA under denaturing conditions; reducing gel: major band 22 kDa, minor 45 kDa; non-reducing gel: 45 kDa major, 22 kDa minor; both bands identified by in-gel digestion and MALDI-TOF and detected by rabbit anti-rFlaR antiserum.

For orientation: stoichiometry N means the number of molecules, sites or subunits per partner or assembly. In the case of “Flavin reductase (FlaR), endogenous in S. pneumoniae WU2 (from UniProt A0ACD7PR00 1-174) (enzyme)”, in assay [1], the stoichiometry N was determined as 2.
Turning to “Recombinant flavin reductase (rFlaR), HAT-tagged (from UniProt A0ACD7PR00 1-174) (enzyme)”, in assay [2], the stoichiometry N came to 2.

These data come from publication PMC5762878.
